Source: article PMC3686867, “Characterization of a Novel Putative S-Adenosylmethionine Decarboxylase-Like Protein from Leishmania donovani” (PLoS ONE, 2013)

Columns and labels:
[1] = molecular target: Leishmania donovani putative S-adenosylmethionine decarboxylase-like proenzyme (ADL) (Leishmania donovani); assay: SEC; Superdex 75 10/300; ADL 1 mg/ml; 50 mM Tris-HCl pH 7.0, 50 mM NaCl, 3 mM β-me; 25°C; calibrated with low molecular weight standards; elution at 10.4 ml, ~66 kDa
[2] = molecular target: Leishmania donovani putative S-adenosylmethionine decarboxylase-like proenzyme (ADL) (Leishmania donovani); assay: native gel or EMSA; native polyacrylamide gel electrophoresis of purified ADL
[3] = molecular target: T1, S-adenosylmethionine decarboxylase-like protein (ADL; putative S-adenosylmethionine decarboxylase-like proenzyme) (Leishmania donovani, UniProt E9BM59); assay: tryptophan fluorescence quenching titration (saturation isotherm); supported by far-UV CD; type: binding
T1 construct: gene LdCL_300037200; 894 bp L. donovani ADL gene in pQE30, 6×His-ADL, ~33 kDa, dimer
T1 sequence (E9BM59 1-297): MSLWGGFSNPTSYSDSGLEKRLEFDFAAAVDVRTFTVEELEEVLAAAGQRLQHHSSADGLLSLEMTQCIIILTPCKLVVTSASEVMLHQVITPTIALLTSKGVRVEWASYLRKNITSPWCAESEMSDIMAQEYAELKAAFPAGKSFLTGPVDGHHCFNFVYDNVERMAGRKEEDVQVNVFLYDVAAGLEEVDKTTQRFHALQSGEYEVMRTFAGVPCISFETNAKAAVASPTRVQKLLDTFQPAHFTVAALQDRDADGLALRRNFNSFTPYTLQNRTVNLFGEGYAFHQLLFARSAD

Molecule	stoichiometry N [1]	stoichiometry N [2]	Kd [3] [µM]
Leishmania donovani putative S-adenosylmethionine decarboxylase-like proenzyme (ADL) (natural protein)	2	2	
C[S+](CC[C@H](N)C(=O)[O-])C[C@H]1O[C@@H](n2cnc3c(N)ncnc32)[C@H](O)[C@@H]1O (stereo partly drawn) [S-adenosylmethionine]			51 ± 5
